We go through 13 molecules from paper PMC6827286.

T1: colFD-NL
T1 chain: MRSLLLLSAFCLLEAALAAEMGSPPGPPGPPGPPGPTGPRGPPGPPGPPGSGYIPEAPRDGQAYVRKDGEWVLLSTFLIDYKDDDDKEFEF

B1: Hsp47-HT, P19324 Y353A (protein)
chain: AEVKKPLEAAAPGTAEKLSSKATTLAERSTGLAFSLYQAMAKDQAVENILLSPLVVASSLGLVSLGGKATTASQAKAVLSAEKLRDEEVHTGLGELLRSLSNSTARNVTWKLGSRLYGPSSVSFADDFVRSSKQHYNCEHSKINFRDKRSALQSINEWASQTTDGKLPEVTKDVERTDGALLVNAMFFKPHWDEKFHHKMVDNRGFMVTRSYTVGVTMMHRTGLYNYYDDEKEKLQMVEMPLAHKLSSLIILMPHHVEPLERLEKLLTKEQLKAWMGKMQKKAVAISLPKGVVEVTHDLQKHLAGLGLTEAIDKNKADLSRMSGKKDLYLASVFHATAFEWDTEGNPFDQDIAGREELRSPKLFYADHPFIFLVRDNQSGSLLFIGRLVRPKGDKMRDEL
B2: Hsp47-HT, P19324 R355A (protein)
chain: AEVKKPLEAAAPGTAEKLSSKATTLAERSTGLAFSLYQAMAKDQAVENILLSPLVVASSLGLVSLGGKATTASQAKAVLSAEKLRDEEVHTGLGELLRSLSNSTARNVTWKLGSRLYGPSSVSFADDFVRSSKQHYNCEHSKINFRDKRSALQSINEWASQTTDGKLPEVTKDVERTDGALLVNAMFFKPHWDEKFHHKMVDNRGFMVTRSYTVGVTMMHRTGLYNYYDDEKEKLQMVEMPLAHKLSSLIILMPHHVEPLERLEKLLTKEQLKAWMGKMQKKAVAISLPKGVVEVTHDLQKHLAGLGLTEAIDKNKADLSRMSGKKDLYLASVFHATAFEWDTEGNPFDQDIYGAEELRSPKLFYADHPFIFLVRDNQSGSLLFIGRLVRPKGDKMRDEL
B3: Hsp47-HT, P19324 Q350A (protein)
chain: AEVKKPLEAAAPGTAEKLSSKATTLAERSTGLAFSLYQAMAKDQAVENILLSPLVVASSLGLVSLGGKATTASQAKAVLSAEKLRDEEVHTGLGELLRSLSNSTARNVTWKLGSRLYGPSSVSFADDFVRSSKQHYNCEHSKINFRDKRSALQSINEWASQTTDGKLPEVTKDVERTDGALLVNAMFFKPHWDEKFHHKMVDNRGFMVTRSYTVGVTMMHRTGLYNYYDDEKEKLQMVEMPLAHKLSSLIILMPHHVEPLERLEKLLTKEQLKAWMGKMQKKAVAISLPKGVVEVTHDLQKHLAGLGLTEAIDKNKADLSRMSGKKDLYLASVFHATAFEWDTEGNPFDADIYGREELRSPKLFYADHPFIFLVRDNQSGSLLFIGRLVRPKGDKMRDEL
B4: Hsp47-HT, P19324 D351A (protein)
chain: AEVKKPLEAAAPGTAEKLSSKATTLAERSTGLAFSLYQAMAKDQAVENILLSPLVVASSLGLVSLGGKATTASQAKAVLSAEKLRDEEVHTGLGELLRSLSNSTARNVTWKLGSRLYGPSSVSFADDFVRSSKQHYNCEHSKINFRDKRSALQSINEWASQTTDGKLPEVTKDVERTDGALLVNAMFFKPHWDEKFHHKMVDNRGFMVTRSYTVGVTMMHRTGLYNYYDDEKEKLQMVEMPLAHKLSSLIILMPHHVEPLERLEKLLTKEQLKAWMGKMQKKAVAISLPKGVVEVTHDLQKHLAGLGLTEAIDKNKADLSRMSGKKDLYLASVFHATAFEWDTEGNPFDQAIYGREELRSPKLFYADHPFIFLVRDNQSGSLLFIGRLVRPKGDKMRDEL
B5: Hsp47-HT, P19324 E356A (protein)
chain: AEVKKPLEAAAPGTAEKLSSKATTLAERSTGLAFSLYQAMAKDQAVENILLSPLVVASSLGLVSLGGKATTASQAKAVLSAEKLRDEEVHTGLGELLRSLSNSTARNVTWKLGSRLYGPSSVSFADDFVRSSKQHYNCEHSKINFRDKRSALQSINEWASQTTDGKLPEVTKDVERTDGALLVNAMFFKPHWDEKFHHKMVDNRGFMVTRSYTVGVTMMHRTGLYNYYDDEKEKLQMVEMPLAHKLSSLIILMPHHVEPLERLEKLLTKEQLKAWMGKMQKKAVAISLPKGVVEVTHDLQKHLAGLGLTEAIDKNKADLSRMSGKKDLYLASVFHATAFEWDTEGNPFDQDIYGRAELRSPKLFYADHPFIFLVRDNQSGSLLFIGRLVRPKGDKMRDEL
B6: Hsp47-HT, P19324 Y353F (protein)
chain: AEVKKPLEAAAPGTAEKLSSKATTLAERSTGLAFSLYQAMAKDQAVENILLSPLVVASSLGLVSLGGKATTASQAKAVLSAEKLRDEEVHTGLGELLRSLSNSTARNVTWKLGSRLYGPSSVSFADDFVRSSKQHYNCEHSKINFRDKRSALQSINEWASQTTDGKLPEVTKDVERTDGALLVNAMFFKPHWDEKFHHKMVDNRGFMVTRSYTVGVTMMHRTGLYNYYDDEKEKLQMVEMPLAHKLSSLIILMPHHVEPLERLEKLLTKEQLKAWMGKMQKKAVAISLPKGVVEVTHDLQKHLAGLGLTEAIDKNKADLSRMSGKKDLYLASVFHATAFEWDTEGNPFDQDIFGREELRSPKLFYADHPFIFLVRDNQSGSLLFIGRLVRPKGDKMRDEL
B7: Hsp47-HT, P19324 I352E (protein)
chain: AEVKKPLEAAAPGTAEKLSSKATTLAERSTGLAFSLYQAMAKDQAVENILLSPLVVASSLGLVSLGGKATTASQAKAVLSAEKLRDEEVHTGLGELLRSLSNSTARNVTWKLGSRLYGPSSVSFADDFVRSSKQHYNCEHSKINFRDKRSALQSINEWASQTTDGKLPEVTKDVERTDGALLVNAMFFKPHWDEKFHHKMVDNRGFMVTRSYTVGVTMMHRTGLYNYYDDEKEKLQMVEMPLAHKLSSLIILMPHHVEPLERLEKLLTKEQLKAWMGKMQKKAVAISLPKGVVEVTHDLQKHLAGLGLTEAIDKNKADLSRMSGKKDLYLASVFHATAFEWDTEGNPFDQDEYGREELRSPKLFYADHPFIFLVRDNQSGSLLFIGRLVRPKGDKMRDEL
B8: Hsp47-HT, P19324 I352F (protein)
chain: AEVKKPLEAAAPGTAEKLSSKATTLAERSTGLAFSLYQAMAKDQAVENILLSPLVVASSLGLVSLGGKATTASQAKAVLSAEKLRDEEVHTGLGELLRSLSNSTARNVTWKLGSRLYGPSSVSFADDFVRSSKQHYNCEHSKINFRDKRSALQSINEWASQTTDGKLPEVTKDVERTDGALLVNAMFFKPHWDEKFHHKMVDNRGFMVTRSYTVGVTMMHRTGLYNYYDDEKEKLQMVEMPLAHKLSSLIILMPHHVEPLERLEKLLTKEQLKAWMGKMQKKAVAISLPKGVVEVTHDLQKHLAGLGLTEAIDKNKADLSRMSGKKDLYLASVFHATAFEWDTEGNPFDQDFYGREELRSPKLFYADHPFIFLVRDNQSGSLLFIGRLVRPKGDKMRDEL
B9: Hsp47-HT, P19324 Y353E (protein)
chain: AEVKKPLEAAAPGTAEKLSSKATTLAERSTGLAFSLYQAMAKDQAVENILLSPLVVASSLGLVSLGGKATTASQAKAVLSAEKLRDEEVHTGLGELLRSLSNSTARNVTWKLGSRLYGPSSVSFADDFVRSSKQHYNCEHSKINFRDKRSALQSINEWASQTTDGKLPEVTKDVERTDGALLVNAMFFKPHWDEKFHHKMVDNRGFMVTRSYTVGVTMMHRTGLYNYYDDEKEKLQMVEMPLAHKLSSLIILMPHHVEPLERLEKLLTKEQLKAWMGKMQKKAVAISLPKGVVEVTHDLQKHLAGLGLTEAIDKNKADLSRMSGKKDLYLASVFHATAFEWDTEGNPFDQDIEGREELRSPKLFYADHPFIFLVRDNQSGSLLFIGRLVRPKGDKMRDEL
B10: Hsp47-HT, P19324 Y353R (protein)
chain: AEVKKPLEAAAPGTAEKLSSKATTLAERSTGLAFSLYQAMAKDQAVENILLSPLVVASSLGLVSLGGKATTASQAKAVLSAEKLRDEEVHTGLGELLRSLSNSTARNVTWKLGSRLYGPSSVSFADDFVRSSKQHYNCEHSKINFRDKRSALQSINEWASQTTDGKLPEVTKDVERTDGALLVNAMFFKPHWDEKFHHKMVDNRGFMVTRSYTVGVTMMHRTGLYNYYDDEKEKLQMVEMPLAHKLSSLIILMPHHVEPLERLEKLLTKEQLKAWMGKMQKKAVAISLPKGVVEVTHDLQKHLAGLGLTEAIDKNKADLSRMSGKKDLYLASVFHATAFEWDTEGNPFDQDIRGREELRSPKLFYADHPFIFLVRDNQSGSLLFIGRLVRPKGDKMRDEL
B11: Hsp47-HT, P19324 I352L (protein)
chain: AEVKKPLEAAAPGTAEKLSSKATTLAERSTGLAFSLYQAMAKDQAVENILLSPLVVASSLGLVSLGGKATTASQAKAVLSAEKLRDEEVHTGLGELLRSLSNSTARNVTWKLGSRLYGPSSVSFADDFVRSSKQHYNCEHSKINFRDKRSALQSINEWASQTTDGKLPEVTKDVERTDGALLVNAMFFKPHWDEKFHHKMVDNRGFMVTRSYTVGVTMMHRTGLYNYYDDEKEKLQMVEMPLAHKLSSLIILMPHHVEPLERLEKLLTKEQLKAWMGKMQKKAVAISLPKGVVEVTHDLQKHLAGLGLTEAIDKNKADLSRMSGKKDLYLASVFHATAFEWDTEGNPFDQDLYGREELRSPKLFYADHPFIFLVRDNQSGSLLFIGRLVRPKGDKMRDEL
B12: Hsp47-HT, P19324 Y353L (protein)
chain: AEVKKPLEAAAPGTAEKLSSKATTLAERSTGLAFSLYQAMAKDQAVENILLSPLVVASSLGLVSLGGKATTASQAKAVLSAEKLRDEEVHTGLGELLRSLSNSTARNVTWKLGSRLYGPSSVSFADDFVRSSKQHYNCEHSKINFRDKRSALQSINEWASQTTDGKLPEVTKDVERTDGALLVNAMFFKPHWDEKFHHKMVDNRGFMVTRSYTVGVTMMHRTGLYNYYDDEKEKLQMVEMPLAHKLSSLIILMPHHVEPLERLEKLLTKEQLKAWMGKMQKKAVAISLPKGVVEVTHDLQKHLAGLGLTEAIDKNKADLSRMSGKKDLYLASVFHATAFEWDTEGNPFDQDILGREELRSPKLFYADHPFIFLVRDNQSGSLLFIGRLVRPKGDKMRDEL
B13: Hsp47-HT, P19324 I352R (protein)
chain: AEVKKPLEAAAPGTAEKLSSKATTLAERSTGLAFSLYQAMAKDQAVENILLSPLVVASSLGLVSLGGKATTASQAKAVLSAEKLRDEEVHTGLGELLRSLSNSTARNVTWKLGSRLYGPSSVSFADDFVRSSKQHYNCEHSKINFRDKRSALQSINEWASQTTDGKLPEVTKDVERTDGALLVNAMFFKPHWDEKFHHKMVDNRGFMVTRSYTVGVTMMHRTGLYNYYDDEKEKLQMVEMPLAHKLSSLIILMPHHVEPLERLEKLLTKEQLKAWMGKMQKKAVAISLPKGVVEVTHDLQKHLAGLGLTEAIDKNKADLSRMSGKKDLYLASVFHATAFEWDTEGNPFDQDRYGREELRSPKLFYADHPFIFLVRDNQSGSLLFIGRLVRPKGDKMRDEL

The first experiment addresses T1, colFD-NL. The experiment can be described thus: BRET. As to conditions: chain shown with the change; in the ER of HEK293 cells; n = 4; parent: est. 100; read off a plot. Background: BRET reads energy transfer from a luciferase to a nearby fluorophore.
With B1, the percent of parent worked out at 84%. For B2, the percent of parent was determined as 96%. On to B3, for which the percent of parent was 100%.

As for B4, the percent of parent is 100%. In the case of B5, the percent of parent came out at 95%.

In the next experiment the target is T1, colFD-NL. The experiment can be described thus: BRET. As to conditions: chain shown with the change; in the ER of HEK293 cells; n = 4; parent: est. 100; read off a plot. The source holds these as a separate data set.
For B1, the percent of parent is 83%.

On to B6, for which the percent of parent is 88%. The same measure, in the same setting: the figure for B7 is 83%. Consider B8, for which the percent of parent turned out to be 95%.

Consider B9, for which the percent of parent came out at 77%. With B10, the percent of parent was determined as 74%. As for B11, the percent of parent worked out at 92%. B12: the percent of parent was 82%. Same read-out and setting: the figure for B13 is 81%.
